The source of these data is paper PMC3168947 (Molecular cell, 2011).

The Kd is the equilibrium constant for the complex coming apart. A lower Kd goes with tighter binding.

First the molecules themselves.
T1: ClpS adaptor (intact, wild type) (E. coli, UniProt P0A8Q6 1-106)
T1 sequence (looked up): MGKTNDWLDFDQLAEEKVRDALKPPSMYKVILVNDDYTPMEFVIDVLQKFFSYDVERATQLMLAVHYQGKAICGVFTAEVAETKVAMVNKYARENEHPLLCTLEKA

T2: ClpS^core (E. coli ClpS residues 26-106) (E. coli, UniProt P0A8Q6 26-106)
T2 sequence (looked up): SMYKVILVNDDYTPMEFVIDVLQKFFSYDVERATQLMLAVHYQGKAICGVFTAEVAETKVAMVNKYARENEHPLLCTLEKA

T3: D20 ClpS with ClpA6 (E. coli, UniProt P0ABH9 1-758; P0A8Q6 20-106)
T3 sequence (looked up) 1: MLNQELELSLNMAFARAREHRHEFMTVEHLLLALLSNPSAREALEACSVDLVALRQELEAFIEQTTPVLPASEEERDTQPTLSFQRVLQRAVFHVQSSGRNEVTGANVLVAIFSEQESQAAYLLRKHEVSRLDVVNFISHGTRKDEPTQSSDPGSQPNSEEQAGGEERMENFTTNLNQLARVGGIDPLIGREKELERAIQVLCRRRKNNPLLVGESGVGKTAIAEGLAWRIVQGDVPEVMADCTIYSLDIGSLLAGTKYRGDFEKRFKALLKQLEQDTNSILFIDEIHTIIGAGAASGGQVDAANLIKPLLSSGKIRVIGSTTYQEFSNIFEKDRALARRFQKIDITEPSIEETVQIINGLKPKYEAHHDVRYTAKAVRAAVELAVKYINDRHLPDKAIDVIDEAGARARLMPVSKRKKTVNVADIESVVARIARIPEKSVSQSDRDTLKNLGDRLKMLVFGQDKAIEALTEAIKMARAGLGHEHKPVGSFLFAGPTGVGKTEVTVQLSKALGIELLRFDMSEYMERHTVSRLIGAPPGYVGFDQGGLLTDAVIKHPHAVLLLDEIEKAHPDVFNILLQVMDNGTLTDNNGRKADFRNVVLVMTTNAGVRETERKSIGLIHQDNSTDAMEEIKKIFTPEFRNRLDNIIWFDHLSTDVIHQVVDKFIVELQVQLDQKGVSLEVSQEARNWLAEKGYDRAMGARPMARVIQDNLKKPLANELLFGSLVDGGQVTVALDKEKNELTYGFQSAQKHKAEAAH
T3 sequence (looked up) 2: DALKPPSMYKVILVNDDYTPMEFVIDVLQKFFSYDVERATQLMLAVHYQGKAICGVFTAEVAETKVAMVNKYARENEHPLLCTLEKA

T4: L22 ClpS with ClpA6 (E. coli, UniProt P0ABH9 1-758; P0A8Q6 22-106)
T4 sequence (looked up) 1: T3 sequence (looked up) 1
T4 sequence (looked up) 2: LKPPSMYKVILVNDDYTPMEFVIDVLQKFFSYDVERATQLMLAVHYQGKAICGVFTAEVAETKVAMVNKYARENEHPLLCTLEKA

T5: ClpS-ClpA6 complex (E. coli, UniProt P0ABH9 1-758; P0A8Q6 1-106)
T5 sequence (looked up) 1: T3 sequence (looked up) 1
T5 sequence (looked up) 2: T1 sequence (looked up)

T6: ClpA6 (hexameric ClpA unfoldase, stabilised by ATPγS) (E. coli, UniProt P0ABH9 1-758)
T6 sequence (looked up): T3 sequence (looked up) 1

B1: fluorescent N-end-rule peptide LLYVQRDSKEC-fl (peptide)
peptide: LLYVQRDSKEC(fluorescein maleimide)
B2: E. coli ClpS residues 2-106 (crystals of Schuenemann et al., 2009, re-refined here) (natural protein, UniProt P0A8Q6 2-106, looked up)
chain: GKTNDWLDFDQLAEEKVRDALKPPSMYKVILVNDDYTPMEFVIDVLQKFFSYDVERATQLMLAVHYQGKAICGVFTAEVAETKVAMVNKYARENEHPLLCTLEKA
B3: ClpS*^F (ClpS C73V; C101S; E96C labelled with fluorescein) (natural protein, E. coli, UniProt P0A8Q6 1-106, looked up)
chain: T1 sequence (looked up) with C73V, E96C, C101S
modifications: fluorescein maleimide on the single cysteine
B4: ^H66AClpS*^F (natural protein, E. coli, UniProt P0A8Q6 1-106, looked up)
chain: T1 sequence (looked up) with H66A, C73V, E96C, C101S
modifications: fluorescein maleimide on the single cysteine
B5: ClpS*^F bound to the N-end-rule peptide LLYVQRDSKEC (complex, E. coli)
chain: T1 sequence (looked up) with C73V, E96C, C101S
peptide: LLYVQRDSKEC
modifications: fluorescein maleimide on the single cysteine
B6: ^H66AClpS*^F bound to the N-end-rule peptide LLYVQRDSKEC (complex, E. coli)
chain: T1 sequence (looked up) with H66A, C73V, E96C, C101S
peptide: LLYVQRDSKEC
modifications: fluorescein maleimide on the single cysteine
B7: ClpA6 (hexameric ClpA unfoldase, stabilised by ATPγS) (enzyme)
chain: T3 sequence (looked up) 1
B8: *A14 ClpS with ClpA6 (complex, E. coli)
chain 1: T3 sequence (looked up) 1
chain 2: MAEEKVRDALKPPSMYKVILVNDDYTPMEFVIDVLQKFFSYDVERATQLMLAVHYQGKAICGVFTAEVAETKVAMVNKYARENEHPLLCTLEKA

Numbering of substitutions follows the chain as printed. Numbers in names are those of the source. Where “and” joins values, the source holds several entries; their conditions need not be identical. Equal entries are not always repeated. Where two headings read alike, the source gives them in different places. No end group written: not given here.

Data set [1] deals with fluorescent N-end-rule peptide …-fl. Kind of data set: fluorescence polarisation. (In general: In fluorescence polarisation assays a small probe gives low polarisation when free and higher when bound to something large.)
The next data set deals with ClpA6 (Escherichia coli, UniProt P0A8Q6+P0ABH9, C101S/C73V/E96C). Type of data set: binding, E. coli.
Chain of ClpA6 (P0A8Q6 whole entry C73V/E96C/C101S, one chain of several): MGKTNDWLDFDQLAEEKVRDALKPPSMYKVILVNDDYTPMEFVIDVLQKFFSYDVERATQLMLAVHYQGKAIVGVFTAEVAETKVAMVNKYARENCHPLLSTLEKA
The subject of another data set is ^ΔLClpA6. As to the kind of experiment: Binding of ClpS*^F to ^ΔLClpA6, with or without peptide. Further details: species or system E. coli. Conditions: 20 μM LLYVQRDSKEC; Fig. 3E; in words.
The target in data set [2] is T1, ClpS adaptor (intact, wild type). Kind of data set: fluorescence polarisation.
The target of data set [3] is T2, ClpS^core (E. coli ClpS residues 26-106). Kind of data set: fluorescence polarisation.
Another data set addresses T3, D20 ClpS with ClpA6. As to the kind of experiment: fluorescence polarisation.
For the next data set, the target named is T4, L22 ClpS with ClpA6. Kind of data set: fluorescence polarisation.
In a further data set the target is T5, ClpS-ClpA6 complex. As to the kind of experiment: fluorescence polarisation.
The data set “crystal structure” concerns the molecule itself. As to the kind of experiment: crystal structure.
Data set [4] concerns the target T6, ClpA6 (hexameric ClpA unfoldase, …). As to the kind of experiment: fluorescence polarisation.
The target is the same in data set [5]. As to the kind of experiment: fluorescence polarisation. The source holds these as a separate data set.
Data set [6] has the same target. Kind of data set: fluorescence polarisation. This is another data set of the same source.
Data set [7] has the same target. Kind of data set: fluorescence polarisation. This is another data set of the same source.
The target in data set [8] is ClpS*^F variant with NTE deletion (E. coli). As to the kind of experiment: fluorescence polarisation.
A further data set relates to ClpAP. Kind of data set: ClpAPS degradation of YLFVQELA-GFP. Type of data set: biochemical, E. coli. The conditions noted are these: Fig. 4B.
For data set [9], the target named is B1. Kind of data set: fluorescence polarisation.

In turn, “ClpS in complex with the ClpA N domain (from UniProt P0A8Q6 1-106)” showed a Kd in data set [1] of 3000 nM.

In the case of LLYVQRDSKEC, the “ClpA6 bound ClpS*^F more tightly, fold” value on ClpA6 (excess peptide, compared with MLYVQRDSKEC peptide or absence of ligand) is listed as “at least 9 fold”. Moreover, the “Kapp of ClpA6 for ClpS*^F in presence of peptide” value on ClpA6 (fluorescence anisotropy, 200 nM ClpS*^F, 20 μM peptide, ATPγS, Fig. 3A) is listed as less than 20 nM. In addition, the “enhancement of ClpS*^F binding to ^ΔLClpA6 by N-end-rule peptide” value with ^ΔLClpA6 is “enhanced binding of ClpS*^F to ClpA6 but not to ^ΔLClpA6”.

For B1, the equilibrium dissociation constant (Kd) in data set [2] is approximately 3000 nM; in data set [3], approximately 3000 nM; with D20 ClpS with ClpA6, 130 nM; in the data set with L22 ClpS with ClpA6, 290 nM; with ClpS-ClpA6 complex it was 43 nM.

For B2, the binding result in “crystal structure” is given as “binds”.

Regarding B3, the Kd in data set [4] was less than 20 nM; in [5], approximately 180 nM; in data set [6], 200 ± 6 nM.

Regarding B4, binding in data set [6] was characterised by a dissociation constant (Kd) of 345 ± 3 nM.

As for B5, in [7], the Kd was < 20 nM and 20 nM.

B6: in data set [7], binding was characterised by a dissociation constant (Kd) of 178 ± 4 nM.

Molecule B7 returned a fold reduction of affinity against ClpS*^F in data set [8] of 10 fold.

For B8, in the data set with ClpAP (YLFVQELA-GFP degradation, Vmax = Etotal•kdeg/(1+K2), KM = K1•K2/(1+K2)), the “K2 (unimolecular engagement step, global fit)” value is given as 9.2. Moreover, the “steady-state degradation kinetics, in words” value with ClpAP (YLFVQELA-GFP, 100 nM ClpA6, 200 nM ClpP14, 600 nM ClpS or variants) is reported as “substantial decrease in Vmax”. For the same molecule, the “reduction in Vmax compared to ClpS, fold” value in the data set on ClpAP (YLFVQELA-GFP, 100 nM ClpA6, 200 nM ClpP14, 600 nM ClpS variant) is on record as 7.5 fold. Also, binding in [9] was put at a Kd of 130 nM.
